Test results as given in patent US20260097105A1, “SYSTEMS, FORMULATIONS AND METHODS FOR GENERATING UNIVERSAL PEPTIDE/MHC COMPLEXES WITH ENGINEERED DISULFIDE CONNECTING THE HEAVY AND LIGHT CHAINS” (priority 2022, published 2026).

What was measured:
[1] = biological target: open HLA-A*24:02 (G120C)/β2m (H31C)/… (human); assay: fluorescence polarization, peptide exchange, 200 nM pMHC
[2] = biological target: WT HLA-A*29:02/β2m/[…] (human); assay: competition; settings: chains peptide; modification not given

Row | Binder | fold of peptide exchange kinetics (Kassoc.) against WT HLA-A*24:02 [1] | IC50 [2]
1 | KYNPIRTTF (modifications not checked) | 6 fold | –
2 | ALIDVFHQY | – | 49 nM
